Experimental data from PMC5293408 (Biochemistry, 2016).
“And” between values parts separate entries of the source, which are not always exact repeats. Equal entries are not always repeated. Where two headings read alike, the source gives them in different places.

Tests used:
[1] = molecular target: T1, hUGDHA136M (human UDP-glucose dehydrogenase A136M) (Homo sapiens, UniProt O60701, A136M); experiment: steady-state kinetics, global fit of competitive inhibition; type: biochemical
T1 sequence (O60701 1-494 A136M): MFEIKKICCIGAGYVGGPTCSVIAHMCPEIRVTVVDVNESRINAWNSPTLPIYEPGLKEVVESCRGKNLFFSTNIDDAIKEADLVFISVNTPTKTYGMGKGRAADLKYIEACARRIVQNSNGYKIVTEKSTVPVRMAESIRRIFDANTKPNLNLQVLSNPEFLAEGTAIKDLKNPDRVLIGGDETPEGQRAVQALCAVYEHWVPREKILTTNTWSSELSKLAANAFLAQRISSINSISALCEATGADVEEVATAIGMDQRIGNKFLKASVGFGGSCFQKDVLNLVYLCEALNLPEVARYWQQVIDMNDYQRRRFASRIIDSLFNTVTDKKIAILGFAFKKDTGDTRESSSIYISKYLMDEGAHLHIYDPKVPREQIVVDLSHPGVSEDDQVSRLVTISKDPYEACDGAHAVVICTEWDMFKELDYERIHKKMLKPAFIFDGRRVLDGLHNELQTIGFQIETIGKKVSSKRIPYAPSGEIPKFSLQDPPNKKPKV

[2] = molecular target: the molecule itself; experiment: AUC
[3] = substrate: NC(=O)c1ccc[n+]([C@@H]2O[C@H](COP(=O)([O-])OP(=O)(O)OC[C@H]3O[C@@H](n4cnc5c(N)ncnc54)[C@H](O)[C@@H]3O)[C@@H](O)[C@H]2O)c1; experiment: steady-state NAD+ saturation kinetics; type: biochemical, Homo sapiens; details: NAD+ binding domain (NB); varied: cofactor
[4] = molecular target: the molecule itself; experiment: AUC; remark: listed apart in the source

Molecule	Ki [1] [µM]	stoichiometry N [2]	Km [3] [µM]	stoichiometry N [4]
O=c1ccn([C@@H]2O[C@H](COP(=O)(O)OP(=O)(O)O[C@H]3OC[C@@H](O)[C@H](O)[C@H]3O)[C@@H](O)[C@H]2O)c(=O)[nH]1 [UDP-xylose]	4.2	–	–	–
Human UDP-glucose dehydrogenase with the A136M substitution (enzyme) MFEIKKICCIGAGYVGGPTCSVIAHMCPEIRVTVVDVNESRINAWNSPTLPIYEPGLKEVVESCRGKNLFFSTNIDDAIKEADLVFISVNTPTKTYGMGKGRAADLKYIEACARRIVQNSNGYKIVTEKSTVPVRMAESIRRIFDANTKPNLNLQVLSNPEFLAEGTAIKDLKNPDRVLIGGDETPEGQRAVQALCAVYEHWVPREKILTTNTWSSELSKLAANAFLAQRISSINSISALCEATGADVEEVATAIGMDQRIGNKFLKASVGFGGSCFQKDVLNLVYLCEALNLPEVARYWQQVIDMNDYQRRRFASRIIDSLFNTVTDKKIAILGFAFKKDTGDTRESSSIYISKYLMDEGAHLHIYDPKVPREQIVVDLSHPGVSEDDQVSRLVTISKDPYEACDGAHAVVICTEWDMFKELDYERIHKKMLKPAFIFDGRRVLDGLHNELQTIGFQIETIGKKVSSKRIPYAPSGEIPKFSLQDPPNKKPKV	–	6 and 2 and 4	90	–
Human UDP-glucose dehydrogenase (enzyme, UniProt O60701 1-494, looked up) MFEIKKICCIGAGYVGGPTCSVIAHMCPEIRVTVVDVNESRINAWNSPTLPIYEPGLKEVVESCRGKNLFFSTNIDDAIKEADLVFISVNTPTKTYGMGKGRAADLKYIEACARRIVQNSNGYKIVTEKSTVPVRAAESIRRIFDANTKPNLNLQVLSNPEFLAEGTAIKDLKNPDRVLIGGDETPEGQRAVQALCAVYEHWVPREKILTTNTWSSELSKLAANAFLAQRISSINSISALCEATGADVEEVATAIGMDQRIGNKFLKASVGFGGSCFQKDVLNLVYLCEALNLPEVARYWQQVIDMNDYQRRRFASRIIDSLFNTVTDKKIAILGFAFKKDTGDTRESSSIYISKYLMDEGAHLHIYDPKVPREQIVVDLSHPGVSEDDQVSRLVTISKDPYEACDGAHAVVICTEWDMFKELDYERIHKKMLKPAFIFDGRRVLDGLHNELQTIGFQIETIGKKVSSKRIPYAPSGEIPKFSLQDPPNKKPKV	–	6	–	2 and 4
